Results as given in US20240182536A1 (MURAL ONCOLOGY, published 2024).

T1: IL-18 binding protein (IL-18BP) (UniProt O95998 31-194)
T1 sequence (looked up): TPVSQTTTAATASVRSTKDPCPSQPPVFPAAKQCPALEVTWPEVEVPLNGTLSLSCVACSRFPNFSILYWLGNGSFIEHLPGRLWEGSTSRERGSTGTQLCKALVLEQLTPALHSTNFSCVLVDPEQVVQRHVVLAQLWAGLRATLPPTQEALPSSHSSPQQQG

T2: IL-18 receptors on HEK-Blue IL-18 reporter cells (UniProt Q13478 19-541; O95256 20-599, limits assumed)
T2 sequence (looked up) 1: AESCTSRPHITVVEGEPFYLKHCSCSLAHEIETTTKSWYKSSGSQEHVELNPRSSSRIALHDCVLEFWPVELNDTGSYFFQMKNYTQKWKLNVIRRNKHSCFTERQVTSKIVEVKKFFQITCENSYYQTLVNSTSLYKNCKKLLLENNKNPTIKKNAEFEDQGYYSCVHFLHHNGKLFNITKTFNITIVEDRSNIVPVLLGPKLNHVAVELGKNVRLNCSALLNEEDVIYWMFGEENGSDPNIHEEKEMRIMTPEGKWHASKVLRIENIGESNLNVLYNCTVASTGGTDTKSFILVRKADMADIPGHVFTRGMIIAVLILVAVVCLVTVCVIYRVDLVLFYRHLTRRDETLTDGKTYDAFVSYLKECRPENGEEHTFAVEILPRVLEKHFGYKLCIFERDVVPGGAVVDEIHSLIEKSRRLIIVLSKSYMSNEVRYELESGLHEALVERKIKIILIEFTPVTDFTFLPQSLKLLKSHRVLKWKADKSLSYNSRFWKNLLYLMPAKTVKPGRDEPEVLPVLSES
T2 sequence (looked up) 2: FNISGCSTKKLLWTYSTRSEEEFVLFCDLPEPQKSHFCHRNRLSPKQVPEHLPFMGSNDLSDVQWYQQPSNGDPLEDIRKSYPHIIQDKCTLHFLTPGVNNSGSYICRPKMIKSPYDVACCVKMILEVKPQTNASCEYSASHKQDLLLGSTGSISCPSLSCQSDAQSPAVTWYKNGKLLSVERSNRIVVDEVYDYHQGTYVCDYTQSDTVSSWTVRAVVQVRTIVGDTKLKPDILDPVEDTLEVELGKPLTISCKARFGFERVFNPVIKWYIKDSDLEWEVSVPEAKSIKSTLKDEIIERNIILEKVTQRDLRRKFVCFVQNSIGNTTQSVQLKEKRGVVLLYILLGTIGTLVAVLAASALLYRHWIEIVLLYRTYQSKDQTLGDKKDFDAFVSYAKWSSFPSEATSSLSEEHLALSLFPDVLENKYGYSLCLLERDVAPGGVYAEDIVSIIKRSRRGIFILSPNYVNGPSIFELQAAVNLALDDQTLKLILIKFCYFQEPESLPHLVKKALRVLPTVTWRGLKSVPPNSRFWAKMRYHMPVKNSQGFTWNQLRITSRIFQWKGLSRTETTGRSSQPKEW


Experiments:
[1] = target: T1, IL-18 binding protein (IL-18BP); test: cell-based or functional assay
[2] = target: T2, IL-18 receptors on HEK-Blue IL-18 …; test: cell-based or functional assay

Binder | Activity, +100 nM BP, DF-1000002 [1] | Activity, +100 nM BP, DF-5000003 [1] | Activity, +100 nM BP, DF-25000004 [1] | Ratio (-BP/+BP), DF-1000005 [1] | Ratio (-BP/+BP), DF-5000006 [1] | Ratio (-BP/+BP), DF-25000007 [1] | Activity, No BP, DF-100000 [2] | Activity, No BP, DF-500000 [2] | Activity, No BP, DF-2500000 [2]
IL-18 variant G3V, E6Q, T34P, D54M, S55F, N91R, R104H (ligand) YFVKLQSKLSVIRNLNDQVLFIDQGNRPLFEDMPDSDMRDNAPRTIFIISMYKMFQPRGMAVTISVKSEKISTLSSENKIISFKEMNPPDRIKDTKSDIIFFQHSVPGHDNKMQFESSSYEGYFLASEKERDLFKLILKKEDELGDRSIMFTVQNED | 0.14 | 0.08 | 0.08 | 6.88 | 4.95 | 1.77 | 0.97 | 0.41 | 0.13
IL-18 variant G3P, E6G, D54P, S55W, N91E, R104K (ligand) YFPKLGSKLSVIRNLNDQVLFIDQGNRPLFEDMTDSDMRDNAPRTIFIISMYKPWQPRGMAVTISVKSEKISTLSSENKIISFKEMNPPDEIKDTKSDIIFFQKSVPGHDNKMQFESSSYEGYFLASEKERDLFKLILKKEDELGDRSIMFTVQNED | 0.09 | 0.1 | 0.07 | 0.98 | 0.84 | 0.92 | 0.09 | 0.08 | 0.07
IL-18 variant G3Q, E6D, K53S, D54I, S55E, T63S, N91S, R104Q (ligand) YFQKLDSKLSVIRNLNDQVLFIDQGNRPLFEDMTDSDMRDNAPRTIFIISMYSIEQPRGMAVSISVKSEKISTLSSENKIISFKEMNPPDSIKDTKSDIIFFQQSVPGHDNKMQFESSSYEGYFLASEKERDLFKLILKKEDELGDRSIMFTVQNED | 0.12 | 0.09 | 0.11 | 0.73 | 0.8 | 0.68 | 0.09 | 0.07 | 0.07
IL-18 variant G3P, E6N, D54Y, T63S, N91S, R104Q (ligand) YFPKLNSKLSVIRNLNDQVLFIDQGNRPLFEDMTDSDMRDNAPRTIFIISMYKYSQPRGMAVSISVKSEKISTLSSENKIISFKEMNPPDSIKDTKSDIIFFQQSVPGHDNKMQFESSSYEGYFLASEKERDLFKLILKKEDELGDRSIMFTVQNED | 0.25 | 0.1 | 0.08 | 0.86 | 1.02 | 0.89 | 0.21 | 0.1 | 0.07
IL-18 variant E6N, D54N, S55N, N91H, R104P (ligand) YFGKLNSKLSVIRNLNDQVLFIDQGNRPLFEDMTDSDMRDNAPRTIFIISMYKNNQPRGMAVTISVKSEKISTLSSENKIISFKEMNPPDHIKDTKSDIIFFQPSVPGHDNKMQFESSSYEGYFLASEKERDLFKLILKKEDELGDRSIMFTVQNED | 0.08 | 0.08 | 0.09 | 0.99 | 0.93 | 0.78 | 0.08 | 0.07 | 0.07
IL-18 variant K53T, D54H, S55V, T63A, N91K (ligand) YFGKLESKLSVIRNLNDQVLFIDQGNRPLFEDMTDSDMRDNAPRTIFIISMYTHVQPRGMAVAISVKSEKISTLSSENKIISFKEMNPPDKIKDTKSDIIFFQRSVPGHDNKMQFESSSYEGYFLASEKERDLFKLILKKEDELGDRSIMFTVQNED | 0.23 | 0.1 | 0.07 | 1.18 | 1.24 | 1.58 | 0.28 | 0.12 | 0.12
